The text below walks through data of patent US20030113743A1 (BAYLOR COLLEGE OF MEDICINE HYBRITECH, published 2003).

Common to all, as to experiment: covalent complex formation, SDS-PAGE and Western blot with HK1G586.1
Background: In western blotting, separated proteins are transferred to a membrane and probed.

One experiment deals with T1, antithrombin III (human, UniProt P01008 33-464).
T1 construct: Serpin, used at 20 µM
The method, then:
(§1) FIG. 18 depicts Western blot analysis of hK2 incubated with protease inhibitors. Each sample was separated on a 8-25% gradient SDS-PAGE, blotted and probed with HK1G586.1. hK2 was incubated for 4 hours at 37° C. with the following inhibitors: Lane 1, antichymotrypsin (ACT); lane 2, alpha 2-antiplasmin; lane 3, anti-thrombin III; lane 4, alpha 1-protease inhibitor (anti-trypsin); lane 5, alpha 2-macroglobulin; lanes 1 and 2 show a covalent complex of the predicted Mr of 90-100 kD. Serpin inhibitors were employed at 20 μM, macroglobulin at 2.8 μM, and hK2 at 0.175 μM.
(§2) To test for covalent complex formation, 0.175 μM hK2 was incubated with 20 μM of inhibitor at pH 8 in 100 mM borate buffer. Inhibitors tested were 1-antichymotrypsin, 1-antitrypsin, 1-antiplasmin, antithrombin and 2-macroglobulin. To 5 μl of hK2 (10 μg/ml) was added the calculated μg of inhibitor prepared in 100 mM borate buffer and, if needed, each sample brought up to a total volume of 10 μl. Samples were incubated for 3 hours at 37° C. whereupon 1.5 μl of 7 X PhastSystem SDS sample buffer containing 35% 2-mercaptoethanol was added and the sample boiled for 3 minutes in a water bath. Samples were diluted 1/4 in SDS sample buffer prior to application to SDS/PAGE and Western analyses.

Another experiment deals with T2, alpha 2-antiplasmin (human, UniProt P08697 40-491, limits assumed).
T2 construct: Serpin, used at 20 µM; also called α2-antiplasmin; 1-antiplasmin
T2 sequence (looked up): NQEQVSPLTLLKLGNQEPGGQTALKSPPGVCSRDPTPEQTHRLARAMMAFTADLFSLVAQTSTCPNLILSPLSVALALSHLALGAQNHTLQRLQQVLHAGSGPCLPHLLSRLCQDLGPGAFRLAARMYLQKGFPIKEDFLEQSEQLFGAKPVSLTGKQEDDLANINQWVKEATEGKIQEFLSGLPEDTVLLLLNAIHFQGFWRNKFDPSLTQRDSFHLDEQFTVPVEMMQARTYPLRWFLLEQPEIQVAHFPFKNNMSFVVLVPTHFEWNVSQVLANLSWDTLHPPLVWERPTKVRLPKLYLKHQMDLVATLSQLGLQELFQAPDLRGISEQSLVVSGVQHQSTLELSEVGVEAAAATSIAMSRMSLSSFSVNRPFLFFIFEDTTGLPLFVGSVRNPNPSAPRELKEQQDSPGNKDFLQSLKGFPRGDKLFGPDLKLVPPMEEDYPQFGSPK
On the procedure:
as §1, §2

Experiment [1] deals with T3, α1-antitrypsin (alpha 1-protease inhibitor) (human, UniProt P01009 25-418).
T3 construct: Serpin, used at 20 µM
T3 sequence (P01009 25-418 limits assumed): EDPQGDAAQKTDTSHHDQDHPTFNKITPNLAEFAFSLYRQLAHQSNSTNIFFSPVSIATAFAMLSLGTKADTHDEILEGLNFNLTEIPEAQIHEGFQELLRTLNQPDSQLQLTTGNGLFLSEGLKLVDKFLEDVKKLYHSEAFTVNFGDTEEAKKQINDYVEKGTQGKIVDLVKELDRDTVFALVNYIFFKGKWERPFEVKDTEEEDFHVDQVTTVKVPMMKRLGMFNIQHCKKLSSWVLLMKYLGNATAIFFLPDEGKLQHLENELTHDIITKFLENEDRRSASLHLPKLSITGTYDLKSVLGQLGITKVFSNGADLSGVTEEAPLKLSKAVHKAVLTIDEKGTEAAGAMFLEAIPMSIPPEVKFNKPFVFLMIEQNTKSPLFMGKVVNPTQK
The method, then: as §1, §2

For a further experiment, the target named is T4, antichymotrypsin (ACT) (human, UniProt P01011 24-423).
T4 construct: Serpin, used at 20 µM; also called 1-antichymotrypsin
T4 sequence (looked up): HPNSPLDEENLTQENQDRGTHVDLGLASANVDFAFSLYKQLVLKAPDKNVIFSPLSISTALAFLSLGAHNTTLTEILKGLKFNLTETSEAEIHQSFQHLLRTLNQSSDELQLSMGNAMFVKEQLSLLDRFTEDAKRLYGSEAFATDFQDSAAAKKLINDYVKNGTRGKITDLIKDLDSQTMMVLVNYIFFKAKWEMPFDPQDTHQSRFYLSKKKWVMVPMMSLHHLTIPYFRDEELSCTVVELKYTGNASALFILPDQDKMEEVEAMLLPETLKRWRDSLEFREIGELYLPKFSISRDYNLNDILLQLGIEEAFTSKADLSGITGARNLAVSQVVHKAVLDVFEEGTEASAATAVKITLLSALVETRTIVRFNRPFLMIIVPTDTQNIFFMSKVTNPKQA
On the procedure:
as §1, §2

T1 sequence (P01008 33-464 limits assumed): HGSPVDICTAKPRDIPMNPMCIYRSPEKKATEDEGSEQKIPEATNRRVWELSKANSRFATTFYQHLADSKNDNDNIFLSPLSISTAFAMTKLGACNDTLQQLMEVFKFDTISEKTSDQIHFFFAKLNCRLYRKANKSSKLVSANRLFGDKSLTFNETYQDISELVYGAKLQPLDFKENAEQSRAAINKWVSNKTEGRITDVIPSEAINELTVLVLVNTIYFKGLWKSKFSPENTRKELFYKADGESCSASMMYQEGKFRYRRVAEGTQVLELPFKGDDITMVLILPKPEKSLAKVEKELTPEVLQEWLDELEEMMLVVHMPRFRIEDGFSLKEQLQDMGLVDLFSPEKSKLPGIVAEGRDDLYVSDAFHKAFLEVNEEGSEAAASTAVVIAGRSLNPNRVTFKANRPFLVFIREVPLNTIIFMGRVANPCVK

B1: wild type mature hK2 (prostate-specific glandular kallikrein protein) (enzyme)
chain: not shown
notes: From spent medium of AV12-hK2, PC3-hK2 and DU145-hK2 cells, LNCaP medium, seminal fluid or prostate tissue, depending on the experiment; also called native hK2
On to B1, for which the binding result is reported as “no binding (tested: 20 µM inhibitor, 0.175 µM hK2)” with antithrombin III; “binds” in the experiment with alpha 2-antiplasmin; “no binding (tested: 20 µM inhibitor, 0.175 µM hK2)” in experiment [1]; “binds” in the experiment with antichymotrypsin (ACT).
